The assay concerns the target T1, human [^125J]-SDF-1α (human, UniProt P48061 22-89, 125J (iodine-125) label, position not stated).
T1 construct: Bought from PerkinElmer; also called radiolabelled human SDF-1; CXCL12
Briefly: radioligand binding of human [125J]-SDF-1 to CHO cells expressing human CXCR4, scintillation counting (total binding, cpm); the blocker varied is the nucleic acid Spiegelmer 192-A10-001, preincubated with the ligand. As to the method:
For binding assays CXCR4-expressing cells were seeded into polylysine-coated 24-well plates at a cell density of 1×10⁵ cells/well and cultivated overnight at 37° C. and 5% CO₂ in CHO-Ultra medium (Cambrex, Verviers, Belgium) containing 50 units/ml penicillin, 50 μg/ml streptomycin and 0.5 mg/ml geneticin.
For the binding experiment, the medium was removed and the cells were washed once with Hanks balanced salt solution, additionally containing 20 mM HEPES, 1 mg/ml bovine serum albumin, 0.1 mg/ml bacitracin (HBB). Then the cells were incubated in 0.2 ml HBB for 1 h at room temperature together with […] [¹²⁵J]-SDF-1 (PerkinElmer, Rodgau, Germany) and varying concentrations of Spiegelmer.
Non-specific binding was determined by adding unlabeled human SDF-1 (R & D Systems, Wiesbaden, Germany) to a final concentration of 0.5 μM to several wells.

One molecule from US20110223127A1 (NOXXON PHARMA, published 2011) can be followed below.

T1 sequence (P48061 22-89): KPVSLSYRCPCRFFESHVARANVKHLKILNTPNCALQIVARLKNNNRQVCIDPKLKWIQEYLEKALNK

B1: human CXCR4-receptor (receptor, UniProt P61073 1-352, looked up)
chain: MEGISIYTSDNYTEEMGSGDYDSMKEPCFREENANFNKIFLPTIYSIIFLTGIVGNGLVILVMGYQKKLRSMTDKYRLHLSVADLLFVITLPFWAVDAVANWYFGNFLCKAVHVIYTVNLYSSVLILAFISLDRYLAIVHATNSQRPRKLLAEKVVYVGVWIPALLLTIPDFIFANVSEADDRYICDRFYPNDLWVVVFQFQHIMVGLILPGIVILSCYCIIISKLSHSKGHQKRKALKTTVILILAFFACWLPYYIGISIDSFILLEIIKQGCEFENTVHKWISITEALAFFHCCLNPILYAFLGAKFKTSAQHALTSVSRGSSLKILSKGKRGGHSSVSTESESSSFHSS
notes: whole, on cells; also called SDF-1 receptor
For the molecule B1, the binding result is given as “binds”.
